# According to IntAct's records for PubMed 35512704:
# B1: Mothers against decapentaplegic homolog 4 (Homo sapiens), Q13485 (parent)
# chain: MDNMSITNTPTSNDACLSIVHSLMCHRQGGESETFAKRAIESLVKKLKEKKDELDSLITAITTNGAHPSKCVTIQRTLDGRLQVAGRKGFPHVIYARLWRWPDLHKNELKHVKYCQYAFDLKCDSVCVNPYHYERVVSPGIDLSGLTLQSNAPSSMMVKDEYVHDFEGQPSLSTEGHSIQTIQHPPSNRASTETYSTPALLAPSESNATSTANFPNIPVASTSQPASILGGSHSEGLLQIASGPQPGQQQNGFTGQPATYHHNSTTTWTGSRTAPYTPNLPHHQNGHLQHHPPMPPHPGHYWPVHNELAFQPPISNHPAPEYWCSIAYFEMDVQVGETFKVPSSCPIVTVDGYVDPSGGDRFCLGQLSNVHRTEAIERARLHIGKGVQLECKGEGDVWVRCLSDHAVFVQSYYLDREAGRAPGDAVHKIYPSAYIKVFDLRQCHRQMQQQAATAQAAAAAQAAAVAGNIPGPGSVGGIAPAISLSAAAGIGVDDLRRLCILRMSFVKGWGPDYPRQSIKETPCWIEIHLHRALQLLDEVLHTMPIADPQPLD
# Variants of: B1
# Conditions: with keap1_human KEAP1, Q14145
row,effect of a mutation on the interaction,Variant
1,with no effect,D351H

# Variants of: B1
# Conditions: with klf4_human KLF4, O43474
row,effect of a mutation on the interaction,Variant
1,with no effect,D351H

# Variants of: B1
# Conditions: with maga6_human MAGEA6, P43360
row,effect of a mutation on the interaction,Variant
1,with no effect,D351H

# Variants of: B1
# Conditions: with mp2k7_human MAP2K7, O14733
row,effect of a mutation on the interaction,Variant
1,with no effect,D351H

# Variants of: B1
# Conditions: with m3k1_human MAP3K1, Q13233
row,effect of a mutation on the interaction,Variant
1,with no effect,D351H

# Variants of: B1
# Conditions: with mk10_human MAPK10, P53779
row,effect of a mutation on the interaction,Variant
1,with no effect,D351H

# Variants of: B1
# Conditions: with mk14_human MAPK14, Q16539
row,effect of a mutation on the interaction,Variant
1,with no effect,D351H

# Variants of: B1
# Conditions: with mk03_human MAPK3, P27361
row,effect of a mutation on the interaction,Variant
1,with no effect,D351H

# Variants of: B1
# Conditions: with mk04_human MAPK4, P31152
row,effect of a mutation on the interaction,Variant
1,with no effect,D351H

# Variants of: B1
# Conditions: with mk06_human MAPK6, Q16659
row,effect of a mutation on the interaction,Variant
1,with no effect,D351H

# Variants of: B1
# Conditions: with mcl1_human MCL1, Q07820
row,effect of a mutation on the interaction,Variant
1,with no effect,D351H

# Variants of: B1
# Conditions: with mitf_human MITF
row,effect of a mutation on the interaction,Variant
1,with no effect,D351H

# Variants of: B1
# Conditions: with myc_human MYC
row,effect of a mutation on the interaction,Variant
1,with no effect,D351H

# Variants of: B1
# Conditions: with nck2_human NCK2, O43639
row,effect of a mutation on the interaction,Variant
1,with no effect,D351H

# Variants of: B1
# Conditions: with nf1_human NF1, P21359
row,effect of a mutation on the interaction,Variant
1,with no effect,D351H

# Variants of: B1
# Conditions: with merl_human NF2, P35240
row,effect of a mutation on the interaction,Variant
1,with no effect,D351H

# Variants of: B1
# Conditions: with nfic_human NFIC
row,effect of a mutation on the interaction,Variant
1,with no effect,D351H

# Variants of: B1
# Conditions: with notc2_human NOTCH2, Q04721
row,effect of a mutation on the interaction,Variant
1,with no effect,D351H

# Variants of: B1
# Conditions: with ntrk2_human NTRK2, Q16620
row,effect of a mutation on the interaction,Variant
1,with no effect,D351H

# Variants of: B1
# Conditions: with ntrk3_human NTRK3, Q16288
row,effect of a mutation on the interaction,Variant
1,with no effect,D351H

# Variants of: B1
# Conditions: with pak3_human PAK3, O75914
row,effect of a mutation on the interaction,Variant
1,with no effect,D351H

# Variants of: B1
# Conditions: with prkn_human PRKN
row,effect of a mutation on the interaction,Variant
1,with no effect,D351H

# Variants of: B1
# Conditions: with pax5_human PAX5, Q02548
row,effect of a mutation on the interaction,Variant
1,with no effect,D351H

# Variants of: B1
# Conditions: with pax9_human PAX9, P55771
row,effect of a mutation on the interaction,Variant
1,with no effect,D351H

# Variants of: B1
# Conditions: with pcbp1_human PCBP1, Q15365
row,effect of a mutation on the interaction,Variant
1,with no effect,D351H

# Variants of: B1
# Conditions: with pgfra_human PDGFRA
row,effect of a mutation on the interaction,Variant
1,with no effect,D351H

# Variants of: B1
# Conditions: with pgfrb_human PDGFRB
row,effect of a mutation on the interaction,Variant
1,with no effect,D351H

# Variants of: B1
# Conditions: with pdk1_human PDK1, Q15118
row,effect of a mutation on the interaction,Variant
1,with no effect,D351H

# Variants of: B1
# Conditions: with PIK3C2B
row,effect of a mutation on the interaction,Variant
1,with no effect,D351H

# Variants of: B1
# Conditions: with pk3c3_human PIK3C3, Q8NEB9
row,effect of a mutation on the interaction,Variant
1,with no effect,D351H

# Variants of: B1
# Conditions: with pk3ca_human PIK3CA
row,effect of a mutation on the interaction,Variant
1,with no effect,D351H

# Variants of: B1
# Conditions: with pk3cb_human PIK3CB
row,effect of a mutation on the interaction,Variant
1,with no effect,D351H

# Variants of: B1
# Conditions: with pk3cg_human PIK3CG
row,effect of a mutation on the interaction,Variant
1,with no effect,D351H

# Variants of: B1
# Conditions: with p85a_human PIK3R1, P27986
row,effect of a mutation on the interaction,Variant
1,with no effect,D351H

# Variants of: B1
# Conditions: with p85b_human PIK3R2, O00459
row,effect of a mutation on the interaction,Variant
1,with no effect,D351H

# Variants of: B1
# Conditions: with dpod1_human POLD1, P28340
row,effect of a mutation on the interaction,Variant
1,with no effect,D351H

# Variants of: B1
# Conditions: with dpoe1_human POLE
row,effect of a mutation on the interaction,Variant
1,with no effect,D351H

# Variants of: B1
# Conditions: with lipa1_human PPFIA1, Q13136
row,effect of a mutation on the interaction,Variant
1,with no effect,D351H

# Variants of: B1
# Conditions: with 2aaa_human PPP2R1A
row,effect of a mutation on the interaction,Variant
1,with no effect,D351H

# Variants of: B1
# Conditions: with prdm1_human PRDM1, O75626
row,effect of a mutation on the interaction,Variant
1,with no effect,D351H

# Variants of: B1
# Conditions: with aapk2_human PRKAA2, P54646
row,effect of a mutation on the interaction,Variant
1,with no effect,D351H

# Variants of: B1
# Conditions: with prss8_human PRSS8, Q16651
row,effect of a mutation on the interaction,Variant
1,with no effect,D351H

# Variants of: B1
# Conditions: with ptk6_human PTK6, Q13882
row,effect of a mutation on the interaction,Variant
1,with no effect,D351H

# Variants of: B1
# Conditions: with tf65_human RELA
row,effect of a mutation on the interaction,Variant
1,with no effect,D351H

# Variants of: B1
# Conditions: with rnf43_human RNF43, Q68DV7
row,effect of a mutation on the interaction,Variant
1,with no effect,D351H

# Variants of: B1
# Conditions: with ros1_human ROS1, P08922
row,effect of a mutation on the interaction,Variant
1,with no effect,D351H

# Variants of: B1
# Conditions: with rl5_human RPL5, P46777
row,effect of a mutation on the interaction,Variant
1,with no effect,D351H

# Variants of: B1
# Conditions: with runx1_human RUNX1, Q01196
row,effect of a mutation on the interaction,Variant
1,with no effect,D351H

# Variants of: B1
# Conditions: with ruvb1_human RUVBL1, Q9Y265
row,effect of a mutation on the interaction,Variant
1,with no effect,D351H

# Variants of: B1
# Conditions: with sdha_human SDHA
row,effect of a mutation on the interaction,Variant
1,with no effect,D351H

# Variants of: B1
# Conditions: with sf3b1_human SF3B1, O75533
row,effect of a mutation on the interaction,Variant
1,with no effect,D351H

# Variants of: B1
# Conditions: with skp2_human SKP2, Q13309
row,effect of a mutation on the interaction,Variant
1,with no effect,D351H

# Variants of: B1
# Conditions: with smad1_human SMAD1, Q15797
row,effect of a mutation on the interaction,Variant
1,with no effect,D351H

# Variants of: B1
# Conditions: with smad2_human SMAD2, Q15796
row,effect of a mutation on the interaction,Variant
1,with no effect,D351H

# Variants of: B1
# Conditions: with smad3_human SMAD3, P84022
row,effect of a mutation on the interaction,Variant
1,with no effect,D351H

# Variants of: B1
# Conditions: with smca4_human SMARCA4, P51532
row,effect of a mutation on the interaction,Variant
1,with no effect,D351H

# Variants of: B1
# Conditions: with snf5_human SMARCB1, Q12824
row,effect of a mutation on the interaction,Variant
1,with no effect,D351H

# Variants of: B1
# Conditions: with smo_human SMO
row,effect of a mutation on the interaction,Variant
1,with no effect,D351H

# Variants of: B1
# Conditions: with sox10_human SOX10, P56693
row,effect of a mutation on the interaction,Variant
1,with no effect,D351H

# Variants of: B1
# Conditions: with sox2_human SOX2, P48431
row,effect of a mutation on the interaction,Variant
1,with no effect,D351H

# Variants of: B1
# Conditions: with sox3_human SOX3, P41225
row,effect of a mutation on the interaction,Variant
1,with no effect,D351H

# Variants of: B1
# Conditions: with sox4_human SOX4, Q06945
row,effect of a mutation on the interaction,Variant
1,with no effect,D351H

# Variants of: B1
# Conditions: with sox9_human SOX9, P48436
row,effect of a mutation on the interaction,Variant
1,with no effect,D351H

# Variants of: B1
# Conditions: with spop_human SPOP
row,effect of a mutation on the interaction,Variant
1,with no effect,D351H

# Variants of: B1
# Conditions: with src_human SRC
row,effect of a mutation on the interaction,Variant
1,with no effect,D351H

# Variants of: B1
# Conditions: with stat3_human STAT3, P40763
row,effect of a mutation on the interaction,Variant
1,with no effect,D351H

# Variants of: B1
# Conditions: with stk38_human STK38, Q15208
row,effect of a mutation on the interaction,Variant
1,with no effect,D351H

# Variants of: B1
# Conditions: with ksyk_human SYK
row,effect of a mutation on the interaction,Variant
1,with no effect,D351H

# Variants of: B1
# Conditions: with eloc_human ELOC
row,effect of a mutation on the interaction,Variant
1,with no effect,D351H

# Variants of: B1
# Conditions: with tfe2_human TCF3, P15923
row,effect of a mutation on the interaction,Variant
1,with no effect,D351H

# Variants of: B1
# Conditions: with tead1_human TEAD1, P28347
row,effect of a mutation on the interaction,Variant
1,with no effect,D351H

# Variants of: B1
# Conditions: with tead2_human TEAD2, Q15562
row,effect of a mutation on the interaction,Variant
1,with no effect,D351H

# Variants of: B1
# Conditions: with tead3_human TEAD3, Q99594
row,effect of a mutation on the interaction,Variant
1,with no effect,D351H

# Variants of: B1
# Conditions: with tert_human TERT
row,effect of a mutation on the interaction,Variant
1,with no effect,D351H

# Variants of: B1
# Conditions: with tgfr2_human TGFBR2, P37173
row,effect of a mutation on the interaction,Variant
1,with no effect,D351H

# Variants of: B1
# Conditions: with tnr14_human TNFRSF14, Q92956
row,effect of a mutation on the interaction,Variant
1,with no effect,D351H

# Variants of: B1
# Conditions: with tpx2_human TPX2, Q9ULW0
row,effect of a mutation on the interaction,Variant
1,with no effect,D351H

# Variants of: B1
# Conditions: with tsc2_human TSC2, P49815
row,effect of a mutation on the interaction,Variant
1,with no effect,D351H

# Variants of: B1
# Conditions: with tshr_human TSHR
row,effect of a mutation on the interaction,Variant
1,with no effect,D351H

# Variants of: B1
# Conditions: with vegfa_human VEGFA
row,effect of a mutation on the interaction,Variant
1,with no effect,D351H

# Variants of: B1
# Conditions: with vhl_human VHL
row,effect of a mutation on the interaction,Variant
1,with no effect,D351H

# Variants of: B1
# Conditions: with wt1_human WT1, P19544
row,effect of a mutation on the interaction,Variant
1,with no effect,D351H

# Variants of: B1
# Conditions: with wwtr1_human WWTR1, Q9GZV5
row,effect of a mutation on the interaction,Variant
1,with no effect,D351H

# Variants of: B1
# Conditions: with xpo1_human XPO1, O14980
row,effect of a mutation on the interaction,Variant
1,with no effect,D351H

# Variants of: B1
# Conditions: with 1433b_human YWHAB
row,effect of a mutation on the interaction,Variant
1,with no effect,D351H

# Variants of: B1
# Conditions: with 1433e_human YWHAE
row,effect of a mutation on the interaction,Variant
1,with no effect,D351H

# Variants of: B1
# Conditions: with 1433z_human YWHAZ
row,effect of a mutation on the interaction,Variant
1,with no effect,D351H

# Variants of: B1
# Conditions: with arc1a_human ARPC1A
row,effect of a mutation on the interaction,Variant
1,causing an interaction,D351H
